Consider four proteins from doi:10.1101/2021.12.01.470723 (bioRxiv, 2021).

Series [1] deals with the molecule itself. Nature of the series: SEC; purified rh proSP-C BRICHOS variants on Superdex 200 GL.
Series [2] concerns the molecule itself. Nature of the series: SEC; Bri2 BRICHOS species after thrombin removal of His6-NT* from the fusion protein's monomer, dimer and oligomer fractions; 20 mmol L^-1 NaPi, 0.2 mmol L^-1 EDTA.
Series [3] concerns the molecule itself. The series is described as follows: SEC; rh Bri2 BRICHOS D148N monomer fraction at 0.5, 1, 5, 10, 15 and 100 µmol L^-1; monomer to dimer. For orientation: In gel filtration, larger molecules generally elute earlier.
Series [4] deals with the molecule itself. Nature of the series: other fluorescence titration; Trp fluorescence of 2 µmol L^-1 rh Bri2 BRICHOS T206W monomers, 20 mmol L^-1 NaPi, 0.2 mmol L^-1 EDTA, pH 6.3-8.0; excitation 280 nm; monomer to dimer.

Where a chain is given by its changes, count along the chain named. Names and notes keep the numbering of the source.

B1: recombinant human (rh) wildtype proSP-C BRICHOS (domain or fragment, UniProt P11686 86-197, looked up)
chain: EHLVTTATFSIGSTGLVVYDYQQLLIAYKPAPGTCCYIMKIAPESIPSLEALTRKVHNFQMECSLQAKPAVPTSKLGQAEGRDAGSAPSGGDPAFLGMAVSTLCGEVPLYYI
notes: human prosurfactant protein C (proSP-C), BRICHOS domain, residues 86-197; By SEC mainly a trimer, with some dimers and monomers; also called rh proSP-C BRICHOS; wt proSP-C BRICHOS; source: E. coli Origami 2 (DE3) pLysS, purified (Ni-NTA, ion exchange QFF; thrombin cleavage); not shown: thioredoxin, N-terminal, cleaved
For B1, the “stoichiometry N” value in series [1] came out at 3.

B2: rh proSP-C BRICHOS D105N (domain or fragment, human, UniProt P11686 86-197, looked up)
chain: B1 chain with D20N
notes: human prosurfactant protein C (proSP-C), BRICHOS domain, residues 86-197, with D105N; By SEC a trimer, with more dimers and less monomers than the wildtype; also called D105N mutant; source: E. coli Origami 2 (DE3) pLysS, purified (Ni-NTA, ion exchange QFF; thrombin cleavage); not shown: thioredoxin, N-terminal, cleaved
Consider B2, for which, in series [1], the “stoichiometry N” value turned out to be 3.

B3: rh Bri2 BRICHOS D148N (domain or fragment, human, UniProt Q9Y287 113-231, looked up)
chain: QTIEENIKIFEEEEVEFISVPVPEFADSDPANIVHNFNKKLTAYLDLNLDKCYVIPLNTSIVMPPRNLLELLINIKAGTYLPQSYLIHEHMVITDRIENIDHLGFFIYRLCHDKETYKL
notes: human integral membrane protein 2B (Bri2), BRICHOS domain, residues 113-231, with D148N; Isolated by SEC as monomer, dimer and oligomer fractions; the assay's format tells which fraction was used; also called D148N mutant; source: E. coli SHuffle T7, purified (Ni-NTA, thrombin cleavage, second Ni-NTA, SEC); not shown: His6, N-terminal, cleaved; NT* solubility tag, N-terminal, cleaved
On to B3, for which the “stoichiometry N” value in series [2] was found to be 2. The “ratio of dimers to monomers at 0.5 µmol L^-1” value in series [3] is ~1 dimers:monomers.

B4: rh Bri2 BRICHOS T206W (domain or fragment, human, UniProt Q9Y287 113-231, looked up)
chain: B3 chain with N36D, T94W
notes: human integral membrane protein 2B (Bri2), BRICHOS domain, residues 113-231, with T206W; Monomer and dimer fractions were used for Trp fluorescence; also called rh Bri2 BRICHOS Trp mutant; source: E. coli SHuffle T7, purified (Ni-NTA, thrombin cleavage, second Ni-NTA, SEC); not shown: His6, N-terminal, cleaved; NT* solubility tag, N-terminal, cleaved
As for B4, the binding result in series [4] is listed as “binds”.

As a reminder, the stoichiometry N is the number of molecules, sites or subunits per partner or assembly.
